From patent US20140170171A1

Experiments:
[1] = biological target: rat total IgG (Sigma-Aldrich) (rat); experiment: ELISA, rat total IgG on plate, 10 ng TGF-beta in 100 uL PBS, 18 h 4 C, bound TGF-beta detected with TGF-beta 1 ELISA kit
[2] = biological target: rat total IgG (Sigma-Aldrich) (rat); experiment: ELISA, rat total IgG on plate, 10 ng TGF-beta in 100 uL 10% glycerol in PBS, 18 h 4 C, bound TGF-beta detected with TGF-beta 1 ELISA kit
[3] = biological target: rat total IgG (Sigma-Aldrich) (rat); experiment: ELISA, rat total IgG on plate, 10 ng TGF-beta in 100 uL 0.1M Tris pH 7.4 (0 mM NaCl), 18 h 4 C, bound TGF-beta detected with TGF-beta 1 ELISA kit
[4] = biological target: rat total IgG (Sigma-Aldrich) (rat); experiment: ELISA, rat total IgG on plate, 10 ng TGF-beta in 100 uL 10% glycerol in 0.1M Tris pH 7.4, 18 h 4 C, bound TGF-beta detected with TGF-beta 1 ELISA kit
[5] = biological target: TGF-beta receptors on mink lung epithelial cells (ATCC CCL-64) (mink); experiment: cell-based or functional assay
[6] = biological target: Mouse IgG1 (eBioscience) (mouse); experiment: Sephadex G-50 gel filtration of the TGF-beta/IgG mixture (1:10 molar), fractions assayed by TGF-beta ELISA
[7] = biological target: Mouse IgG2a (eBioscience) (mouse); experiment: as above
[8] = biological target: total mouse IgG (Sigma-Aldrich) (mouse); experiment: 20 ng TGF-beta + 1 ug soluble total mouse IgG, PBS, 42 C, 5 min; Sepharose G-50 spin column eluate assayed by TGF-beta ELISA
[9] = biological target: total mouse IgG (Sigma-Aldrich) (mouse); experiment: 20 ng TGF-beta + 1 ug soluble total mouse IgG, PBS, room temperature, 5 min; Sepharose G-50 spin column eluate assayed by TGF-beta ELISA
[10] = biological target: total mouse IgG (Sigma-Aldrich) (mouse); experiment: 20 ng TGF-beta + 1 ug soluble total mouse IgG, 0.5x PBS with NaOH to pH 11, room temperature, 5 min; Sepharose G-50 spin column eluate assayed by TGF-beta ELISA

Substance	Cell Viability (OD450/Control OD450) at 0.25 pg/mL TIGG (OD450/Control OD450) [5]	Cell Viability (OD450/Control OD450) at 2.5 pg/mL TIGG (OD450/Control OD450) [5]	Cell Viability (OD450/Control OD450) at 25 pg/mL TIGG (OD450/Control OD450) [5]	Cell Viability (OD450/Control OD450) at 250 pg/mL TIGG (OD450/Control OD450) [5]	Cell Viability (OD450/Control OD450) at 2500 pg/mL TIGG (OD450/Control OD450) [5]	also measured
TGF-beta (Leinco Technologies, St. Louis, Mo.) (ligand)	–	–	–	–	–	Net Absorbance (450) (absorbance (450)) [1]: 0.18; Net Absorbance (450) (absorbance (450)) [2]: 0; Net Absorbance (450) (absorbance (450)) [3]: 1.02; Net Absorbance (450) (absorbance (450)) [4]: 0.7
purified mouse TIGG (Transforming Growth Factor-beta-bound IgG), intact	0.965	0.924	0.897	0.817	0.678	–
Transforming growth factor-beta 1 (Peprotech) (from UniProt P01137 279-390) (ligand)	–	–	–	–	–	percent of TGF-beta eluting in the IgG-bound fraction [6]: 40 to 50%; percent of TGF-beta eluting in the IgG-bound fraction [7]: 40 to 50%; Net Absorbance (450) (absorbance (450)) [8]: 0.117; Net Absorbance (450) (absorbance (450)) [9]: 0.193; Net Absorbance (450) (absorbance (450)) [10]: 0.558
Dissociated (Treated) TIGG	0.621	0.645	0.651	0.651	0.616	–
